Changes are numbered by the printed parent chain. Non-standard residues stand in square brackets, D forms with d. No end group written: not given here. αMeL = CC(C)C[C@](C)(N)C(=O)O; Aib = CC(C)(N)C(=O)O

Results on ten molecules are retold here after patent US20240270821A1, “GIP/GLP1/GCG TRI-RECEPTOR AGONISTS AND USES THEREOF” (priority 2023, published 2024).

To fix the notation:
B1: Example 29 (peptide)
chain: YXQGTFTSDFSXXLDKKAQXAFIEYLLAGGPSSGEPPPSEG
modifications: Aib, Orn, alpha-methyl-Leu, acylated Lys, C-terminal amide; synthetic construct; SITE 2: note = 2-Aminoisobutyric Acid; SITE 12: note = L-ornithine; SITE 13: note = alpha-methyl-leucine; SITE 17: note = Lysine is chemically modified through conjugation of the epsilon-amino group of the Lysine side chain with (2-[2-(2-Amino-ethoxy)-ethoxy]-acetyl)-(gamma-Glu)
B2: Example 254 (peptide)
chain: B1 chain with A28E, G29A, E35X, E40G, G41S
modifications: synthetic construct; SITE 2: note = 2-Aminoisobutyric Acid; SITE 12: note = L-ornithine; SITE 13: note = alpha-methyl-leucine; SITE 17: note = Lysine is chemically modified through conjugation of the epsilon-amino group of the Lysine side chain with (2-[2-(2-Amino-ethoxy)-ethoxy]-acetyl)2-(gamma-Glu)
B3: Example 278 (peptide)
chain: B1 chain with A28E, G29X, E35A, E40G, G41T
modifications: synthetic construct; SITE 2: note = 2-Aminoisobutyric Acid; SITE 12: note = L-ornithine; SITE 13: note = alpha-methyl-leucine; SITE 17: note = Lysine is chemically modified through conjugation of the epsilon-amino group of the Lysine side chain with (2-[2-(2-Amino-ethoxy)-ethoxy]-acetyl)-(gamma-Glu)
B4: Example 276 (peptide)
chain: B1 chain with A28E, G29X, E35A, E40G, G41T
modifications: synthetic construct; SITE 2: note = 2-Aminoisobutyric Acid; SITE 12: note = L-ornithine; SITE 13: note = alpha-methyl-leucine; SITE 17: note = Lysine is chemically modified through conjugation of the epsilon-amino group of the Lysine side chain with (gamma-Glu)-(2-[2-(2-Amino-ethoxy)-ethoxy]-acetyl)
B5: Example 279 (peptide)
chain: B1 chain with A28E, G29X, E35A, E40G, G41X
modifications: synthetic construct; SITE 2: note = 2-Aminoisobutyric Acid; SITE 12: note = L-ornithine; SITE 13: note = alpha-methyl-leucine; SITE 17: note = Lysine is chemically modified through conjugation of the epsilon-amino group of the Lysine side chain with (2-[2-(2-Amino-ethoxy)-ethoxy]-acetyl)-(gamma-Glu)
B6: Example 31 (peptide)
chain: B1 chain with X12K, S39G
modifications: Lys acylated; non-natural residues; C-amide; synthetic construct; SITE 2: note = 2-Aminoisobutyric Acid; SITE 13: note = alpha-methyl-leucine; SITE 17: note = Lysine is chemically modified through conjugation of the epsilon-amino group of the Lysine side chain with (2-[2-(2-Amino-ethoxy)-ethoxy]-acetyl)-(gamma-Glu)-CO-(CH2) 18-CO2H; SITE 20: n
B7: Example 255 (peptide)
chain: B1 chain with A28E, G29A, E35H, E40G, G41H
modifications: synthetic construct; SITE 2: note = 2-Aminoisobutyric Acid; SITE 12: note = L-ornithine; SITE 13: note = alpha-methyl-leucine; SITE 17: note = Lysine is chemically modified through conjugation of the epsilon-amino group of the Lysine side chain with (2-[2-(2-Amino-ethoxy)-ethoxy]-acetyl)2-(gamma-Glu)
B8: Example 256 (peptide)
chain: B1 chain with A28E, G29A, E35H, E40G, G41X
modifications: synthetic construct; SITE 2: note = 2-Aminoisobutyric Acid; SITE 12: note = L-ornithine; SITE 13: note = alpha-methyl-leucine; SITE 17: note = Lysine is chemically modified through conjugation of the epsilon-amino group of the Lysine side chain with (2-[2-(2-Amino-ethoxy)-ethoxy]-acetyl)2-(gamma-Glu)
B9: Example 280 (peptide)
chain: YXQGTFTSDXSKXLDKKAQXAFIEYLIEXGESSGAPPPSGS
modifications: synthetic construct; SITE 2: note = 2-Aminoisobutyric Acid; SITE 10: note = 3-(4-Pyridyl)-L-alanine; SITE 13: note = alpha-methyl-leucine; SITE 17: note = Lysine is chemically modified through conjugation of the epsilon-amino group of the Lysine side chain with (2-[2-(2-Amino-ethoxy)-ethoxy]-acetyl)

Sequence of human glucagon receptor (human) (P47871 26-477): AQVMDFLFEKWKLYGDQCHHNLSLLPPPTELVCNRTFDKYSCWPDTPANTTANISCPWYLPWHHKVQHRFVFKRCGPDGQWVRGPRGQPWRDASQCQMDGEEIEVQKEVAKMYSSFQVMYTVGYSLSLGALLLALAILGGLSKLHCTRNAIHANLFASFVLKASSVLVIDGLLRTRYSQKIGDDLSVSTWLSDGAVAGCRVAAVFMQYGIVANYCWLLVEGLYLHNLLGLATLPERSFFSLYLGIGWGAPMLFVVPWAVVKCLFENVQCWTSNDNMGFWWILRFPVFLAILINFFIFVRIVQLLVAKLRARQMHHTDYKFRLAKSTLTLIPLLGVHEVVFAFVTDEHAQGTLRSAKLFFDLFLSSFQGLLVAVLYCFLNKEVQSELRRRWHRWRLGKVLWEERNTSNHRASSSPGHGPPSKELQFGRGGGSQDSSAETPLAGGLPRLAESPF

For one assay, the target named is T1, human GIP receptor (human) (UniProt P48546).
T1 sequence (looked up): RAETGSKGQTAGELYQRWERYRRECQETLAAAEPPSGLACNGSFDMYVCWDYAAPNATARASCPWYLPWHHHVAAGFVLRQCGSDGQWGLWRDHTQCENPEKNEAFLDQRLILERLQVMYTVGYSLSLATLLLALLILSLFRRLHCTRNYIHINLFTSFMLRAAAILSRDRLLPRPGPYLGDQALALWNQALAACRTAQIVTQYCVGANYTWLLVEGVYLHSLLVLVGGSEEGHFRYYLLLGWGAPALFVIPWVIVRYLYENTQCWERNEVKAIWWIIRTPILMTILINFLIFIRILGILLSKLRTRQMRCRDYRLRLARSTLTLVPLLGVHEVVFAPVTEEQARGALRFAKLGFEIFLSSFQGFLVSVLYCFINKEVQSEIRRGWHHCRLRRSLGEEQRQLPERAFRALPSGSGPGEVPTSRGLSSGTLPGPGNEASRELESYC
Put plainly: cell-based or functional assay.
Turning to Y[Aib]QGTFTSDFSK[αMeL]LDKKAQQAFIEYLLA[Aib]GPSSGAPPPSEG-NH2 (not fully specified (residue 17)) [Example 30], the Relative cAMP EC50 came out at 0.247 nM and the cAMP Rel EC50 (in the presence of 1% HSA) worked out at 72.9 nM.

Take B1: the Relative cAMP EC50 was determined as 0.35 nM and the cAMP Rel EC50 (in the presence of 1% HSA) turned out to be 70.1 nM.

Consider B2, for which the Relative cAMP EC50 stood at 0.121 nM and the cAMP Rel EC50 (in the presence of 1% HSA) is 21.4 nM.

Take B3: the Relative cAMP EC50 worked out at 0.0963 nM and the cAMP Rel EC50 (in the presence of 1% HSA) is 7.69 nM.

On to B4, for which the Relative cAMP EC50 turned out to be 0.0708 nM and the cAMP Rel EC50 (in the presence of 1% HSA) amounted to 6.28 nM.

For the molecule B5, the Relative cAMP EC50 came out at 0.105 nM and the cAMP Rel EC50 (in the presence of 1% HSA) came out at 11.6 nM.

For B6, the Relative cAMP EC50 was determined as 0.249 nM and the cAMP Rel EC50 (in the presence of 1% HSA) is 63.6 nM.

Consider B7, for which the Relative cAMP EC50 was 0.107 nM and the cAMP Rel EC50 (in the presence of 1% HSA) came out at 21.9 nM.

For B8, the Relative cAMP EC50 turned out to be 0.176 nM and the cAMP Rel EC50 (in the presence of 1% HSA) turned out to be 17.4 nM.

B9: the Relative cAMP EC50 stood at 0.105 nM and the cAMP Rel EC50 (in the presence of 1% HSA) stood at 15.6 nM.

In another assay the target is human GLP1-R (SNAP-GLP-1R expressed in HEK293 cells) (human) (UniProt P43220). Briefly: cell-based or functional assay.
Sequence of human GLP1-R (SNAP-GLP-1R expressed in HEK293 cells) (human) (P43220 24-463): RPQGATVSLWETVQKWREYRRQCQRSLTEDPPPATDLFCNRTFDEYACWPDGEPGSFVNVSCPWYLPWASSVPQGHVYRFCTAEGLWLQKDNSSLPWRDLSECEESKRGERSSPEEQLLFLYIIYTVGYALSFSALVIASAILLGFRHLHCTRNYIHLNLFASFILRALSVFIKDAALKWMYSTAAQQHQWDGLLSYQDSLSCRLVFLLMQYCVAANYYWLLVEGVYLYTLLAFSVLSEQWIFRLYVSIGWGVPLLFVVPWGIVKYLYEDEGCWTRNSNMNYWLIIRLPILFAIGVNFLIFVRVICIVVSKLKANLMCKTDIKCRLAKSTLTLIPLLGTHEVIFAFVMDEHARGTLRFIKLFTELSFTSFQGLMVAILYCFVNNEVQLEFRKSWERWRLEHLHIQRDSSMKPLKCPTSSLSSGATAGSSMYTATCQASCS
Regarding Y[Aib]QGTFTSDFSK[αMeL]LDKKAQQAFIEYLLA[Aib]GPSSGAPPPSEG-NH2 (not fully specified (residue 17)) [Example 30], the GLP1R Internalization EC50 came out at 70.4 nM and the Internalization % TOP came to 72.8%.

For the molecule B1, the GLP1R Internalization EC50 came out at 129 nM and the Internalization % TOP was 57%.

Molecule B6 came in with a GLP1R Internalization EC50 of 91.9 nM and an Internalization % TOP of 67.4%.

A further assay addresses human glucagon receptor (human) (UniProt P47871). Briefly: cell-based or functional assay.
Take Y[Aib]QGTFTSDFSK[αMeL]LDKKAQQAFIEYLLA[Aib]GPSSGAPPPSEG-NH2 (not fully specified (residue 17)) [Example 30]: the Relative cAMP EC50 came to 5.22 nM and the cAMP Rel EC50 (in the presence of 1% HSA) turned out to be 969 nM.

Take B1: the Relative cAMP EC50 was found to be 11.1 nM and the cAMP Rel EC50 (in the presence of 1% HSA) stood at 1350 nM.

Regarding B2, the Relative cAMP EC50 stood at 4.9 nM and the cAMP Rel EC50 (in the presence of 1% HSA) was 767 nM.

Turning to B3, the Relative cAMP EC50 came to 4.45 nM and the cAMP Rel EC50 (in the presence of 1% HSA) is 274 nM.

Take B4: the Relative cAMP EC50 was 2.82 nM and the cAMP Rel EC50 (in the presence of 1% HSA) turned out to be 113 nM.

Consider B5, for which the Relative cAMP EC50 was determined as 5.06 nM and the cAMP Rel EC50 (in the presence of 1% HSA) stood at 427 nM.

On to B6, for which the Relative cAMP EC50 was 8.42 nM and the cAMP Rel EC50 (in the presence of 1% HSA) is 1750 nM.

Consider B7, for which the Relative cAMP EC50 came to 5.48 nM and the cAMP Rel EC50 (in the presence of 1% HSA) came to 883 nM.

On to B8, for which the Relative cAMP EC50 was found to be 5.71 nM and the cAMP Rel EC50 (in the presence of 1% HSA) is 625 nM.

Turning to B9, the Relative cAMP EC50 amounted to 8.63 nM and the cAMP Rel EC50 (in the presence of 1% HSA) is 1600 nM.

In a further assay the target is hGLP-1R (Homo sapiens, UniProt P43220). Put plainly: cell-based or functional assay.
Sequence of hGLP-1R (P43220 24-463): as above
Take Y[Aib]QGTFTSDFSK[αMeL]LDKKAQQAFIEYLLA[Aib]GPSSGAPPPSEG-NH2 (not fully specified (residue 17)) [Example 30]: the Relative cAMP EC50 is 3.18 nM and the cAMP Rel EC50 (in the presence of 1% HSA) stood at 806 nM.

In the case of B1, the Relative cAMP EC50 worked out at 3.56 nM and the cAMP Rel EC50 (in the presence of 1% HSA) amounted to 493 nM.

For the molecule B2, the Relative cAMP EC50 was 3.08 nM and the cAMP Rel EC50 (in the presence of 1% HSA) stood at 265 nM.

On to B3, for which the Relative cAMP EC50 is 4.11 nM and the cAMP Rel EC50 (in the presence of 1% HSA) came to 241 nM.

As to B4, the Relative cAMP EC50 was determined as 2.61 nM and the cAMP Rel EC50 (in the presence of 1% HSA) worked out at 103 nM.

Consider B5, for which the Relative cAMP EC50 came to 5.77 nM and the cAMP Rel EC50 (in the presence of 1% HSA) is 367 nM.

Regarding B6, the Relative cAMP EC50 is 2.16 nM and the cAMP Rel EC50 (in the presence of 1% HSA) stood at 737 nM.

As for B7, the Relative cAMP EC50 was 1.9 nM and the cAMP Rel EC50 (in the presence of 1% HSA) is 272 nM.

Regarding B8, the Relative cAMP EC50 amounted to 2.87 nM and the cAMP Rel EC50 (in the presence of 1% HSA) is 235 nM.

For B9, the Relative cAMP EC50 is 0.95 nM and the cAMP Rel EC50 (in the presence of 1% HSA) stood at 171 nM.

For a further assay, the target named is human GLP-1R (SNAP-GLP-1R expressed in HEK293 cells) (human) (UniProt P43220). Put plainly: cell-based or functional assay.
Sequence of human GLP-1R (SNAP-GLP-1R expressed in HEK293 cells) (human) (P43220 24-463): as above
B2 showed a GLP1R Internalization EC50 of 31.9 nM and an Internalization % TOP of 47.8%.

Regarding B3, the GLP1R Internalization EC50 was found to be 251 nM and the Internalization % TOP came out at 68.6%.

With B4, the GLP1R Internalization EC50 amounted to 237 nM and the Internalization % TOP worked out at 68.4%.

In turn, B5 had a GLP1R Internalization EC50 of 115 nM and an Internalization % TOP of 37.5%.

With B7, the GLP1R Internalization EC50 is 47.1 nM and the Internalization % TOP turned out to be 51.8%.

For the molecule B8, the GLP1R Internalization EC50 was determined as 87.8 nM and the Internalization % TOP came to 43.5%.

With B9, the GLP1R Internalization EC50 worked out at 39.4 nM and the Internalization % TOP came out at 74.9%.
